The Kd is the concentration at which binding is half-saturated.

Here are results for 5 molecules from patent US20260365759 (published 2026).

To fix the notation:
B1: mAb 27 (antibody, V domains shown)
VH: QIQLVQSGPELKKPGETVKISCKASGYTFTNYGMNWVKQAPGKGLKWIGWINTYTGDPTYADDFKGRFAFSLETSASNGYLQIDNLKKEDTATYFCARRDIFAMDYWGQGTSVTVSS
VL: DIQMTQTTSSLSASLGDRVTITCRASQDIMKYLHWYQQKPDGTIKLLFYYTSRLHSGVPSRFSGSGSGTDYSLTISNLEQEDIATYFCQQDVKYPWTFGGGTKLEIK
B2: mAb 22 (antibody, V domains shown)
VH: QIQLVQSGPELKKPGETVKISCKASGYTFTNYGMNWVKQAPGKGLKWIGWINTYTGDPTYADDFKGRFAFSLETSASNGYLQIDNLKKEDTATYFCARRDIFAMDYWGQGTSVTVSS
VL: DIQMTQTTSSLSASLGDRVTITCRASQDIMKYLHWYQQKPDGTIKLLIYYTSRLHSGVPSRFSGSGSGTDYSLTISNLEQEDIATYFCQQDVKYPWTFGGGTKLEIK
B3: mAb 123 (antibody, V domains shown)
VH: QIQLVQSGPELKKPGETVKISCKGSGYTFTNYGMNWVKQAPGKGLKWMGWINTYTGDPTYADDFKGRIAFSLETSASTAYLQIDNLKNEDTATYFCARRDIFAMDYWGQGTSVTVSS
VL: DIQMTQTTSSLSASLGDRVTITCRASQDIMKYLHWYQQKPDGTVKLLIYYTSRLHSGVPSRFSGSGSGTDYSLTISNLEQEDIATYFCQQDIKYPWTFGGGTKLEIK
B4: mAb 11 (antibody, V domains shown)
VH: QVQLQQPGTELVKPGASVKLSCKASGYTFTNYWMHWVKQRPGQGLEWIGNINPFNGATNYNDNFKTKATLTVDKSSSTAYMHLSSLTSEDSAVYYCARYDYSKYYAMDYWGQGTSVTVSS
VL: ENVLTQSPAIMAASPGDKVTMTCSASSSINSAHFHWYQQKPGTSPKLWIYRTSNLASGVPARFSGRGSGTSYSLTISSMEAADAATYYCQQWSDYPWTFGGGTKLEIR
B5: mAb 75 (antibody, V domains shown)
VH: QIQLVQSGPELKKPGETVKISCKASGYTFTNYGMNWVKQAPGKGLKWMGLINTYTRGPTFADDFKGRFAFSVETSANTAYLQINNLKTEDTATYFCARRGEYYGSSYVDYWGQGTTLTVSS
VL: DIQMTQITSSLSASLGDRVTISCRASQDIMHFLNWYQQKPDGTVKLLIYYTSRLHSGVPSRFSGSGSGTDYSLTITNLEPEDIATYYCQQHSNLPPTFGGGTKLEIK

For the experiment, the target named is T1, Pepsinogen C (PGC) (human).
T1 chain: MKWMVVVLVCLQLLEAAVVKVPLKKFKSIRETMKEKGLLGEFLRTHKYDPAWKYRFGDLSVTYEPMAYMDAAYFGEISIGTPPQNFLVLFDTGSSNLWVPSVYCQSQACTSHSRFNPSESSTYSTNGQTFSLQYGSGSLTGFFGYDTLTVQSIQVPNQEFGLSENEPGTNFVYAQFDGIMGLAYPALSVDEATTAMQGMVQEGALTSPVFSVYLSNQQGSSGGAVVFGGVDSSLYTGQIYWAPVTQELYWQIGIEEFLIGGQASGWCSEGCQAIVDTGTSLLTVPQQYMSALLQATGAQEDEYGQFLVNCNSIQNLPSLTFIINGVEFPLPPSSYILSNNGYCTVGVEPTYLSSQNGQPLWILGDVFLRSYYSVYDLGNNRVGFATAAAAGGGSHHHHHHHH
The experiment can be described thus: SPR, 37C, order of magnitude only.
With B1, the Kd was around 0.1 nM.
For B2 the value was around 0.01 nM; for B3, around 0.1 nM; for B4, around 0.1 nM.
As to B5, the equilibrium dissociation constant (Kd) is around 0.1 nM.
